# Laboratory results from the supplement of paper PMC12042874.
# ± gives the uncertainty stated by the source.
# Experiment: amyloid nucleation score (Sup35N fusion, yeast selection) (log enrichment); library NNK1; higher = more nucleation; inactive = no reads after selection
# Procedure, shortened: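 Sup35N fusions to peptides of 20 random codons were expressed in psi-negative yeast, induced 24 hours with 100 μM copper sulfate, and grown 7 days at 30°C on medium lacking adenine and uracil. Input and output plasmid inserts were sequenced by Illumina. The nucleation score is the DiMSum log enrichment of output over input reads, centred on the mode score of non-aggregating sequences. Sequences with under 100 input reads were excluded.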
row,Substance,amyloid nucleation score
1,VTMDCLMLPYRKGNPN,0.996 ± 0.64
2,IRPINKYRIVLIWVSFVRGE,0.718 ± 0.73
3,RALSH,-0.158 ± 0.74
4,QSSLGNLTCANFWVTTTEVG,inactive
5,TCWVGYYVCW,-0.336 ± 0.53
6,DKRECFGLDLEIWSMVVWMW,0.611 ± 0.8
7,AVEVLGPCRNLRVWSNLDLG,-0.072 ± 0.74
8,QTTFGLMIFT,0.89 ± 0.93
9,VARFCNGYTHNIAMCTGIQR,-2.44 ± 2.4
10,LVMTNIVLRSVKERVHRLLR,-0.46 ± 0.81
11,FGGSLMASFDCTRPSSMER,-0.606 ± 1.6
12,VAMLQFASFQSSW,-0.323 ± 0.39
13,DAEFRHDSGYEVHHQKLVFF,2.91 ± 0.19
14,GTVYWIYGGINLSAVLSSRS,3.44 ± 0.1
15,WTAGWL,-0.065 ± 0.44
16,WYHSYCVVHSFWYATSPLNS,-0.259 ± 0.33
17,ECAIKG,1.38 ± 0.69
18,ISRSICKREVLQVDR,0.378 ± 0.51
19,PAALAWTNFLKASYDLKMGA,-0.587 ± 1.3
20,WHYNMLYCLLRRSRLCWNIV,-0.403 ± 0.48
21,IWLKWCNSPLVRLSMGNSSF,0.206 ± 0.27
22,LLDKTTVKVILCLFNDTINL,7.855 ± 0.043
23,LVLSVFWRNVVWAINLAVVS,-0.521 ± 0.31
24,RMQVKDLVDQVKTTFKCTHT,0.303 ± 0.37
25,VGRNNASLHSDKNRWFGFGF,1.49 ± 0.18
26,SKCIWDFGYVSPWAISS,inactive

row,Substance,amyloid nucleation score
1,CPVNDMGVWGKMACWNNRV,-0.691 ± 0.54
2,SYYQKCNAKNIF,-0.576 ± 0.4
3,YQYGAWNSANVSSNN,1.19 ± 0.57
4,SVVCVVSCYKIGAWLRAGG,0.648 ± 0.52
5,QVFATRDAQRYLLMHRIDHN,-0.153 ± 1.7
6,PSYIHMVSGRFSFSSPRGQK,0.029 ± 0.49
7,YALFADACSKGALDKVFSWV,0.745 ± 1.2
8,LIISFVIVSRMLSVRFSTIV,0.262 ± 0.61
9,QCLRWDPGI,1 ± 0.51
10,PKATRIALPFFLGLCFSMCL,-0.143 ± 0.38
11,DRFRRTNAIGLVHMDSGKG,0.907 ± 0.39
12,FFILSFNIRIYIFEVVTFLK,0.555 ± 0.52
13,VLLVGDPDLPRKRRLRRIAE,1.23 ± 0.62
14,GMWSTNANTPILVILRGVVM,0.71 ± 1.1
15,RSMYVSRRPIVPPLYIGFWE,0.166 ± 0.48
16,FEECLM,-0.059 ± 0.44
17,RIDTFTWSCKCLPPSSIWLL,0.009 ± 0.76
18,NLYPDLGVLVGCHSDKWSNL,-0.115 ± 1.3
19,TRYLRIWSPSQMICMWGRFL,0.145 ± 0.5
20,MCPSIQCYNNYILLQRSVIR,7.08 ± 0.073
21,IGGCWLLQMN,0.369 ± 0.44
22,WRTSEFSHSLVKYVLSRVLT,1.31 ± 0.56
23,CLYARLSFASGYCGLAMRCV,0.477 ± 0.93
24,NVIID,inactive
25,TTEFIGES,1.25 ± 0.73
26,GRGWYGSRYARVVHFVWGYA,-0.487 ± 0.34

row,Substance,amyloid nucleation score
1,WWLRVVS,0.041 ± 0.78
2,YNVWVWCERGQC,4.5 ± 0.1
3,PKNKAAVKNSMALPIARQ,-0.192 ± 0.73
4,YNQISLD,-0.38 ± 1.1
5,IPYLN,1.15 ± 0.54
6,QGHCGTYHSGGSVNRLPHGV,0.209 ± 0.39
7,SYYIC,0.583 ± 0.41
8,VSDHT,1.02 ± 0.47
9,IIYDLLCYSWRMFWL,2.27 ± 0.1
10,MLLLSVSLSLKID,4.35 ± 0.095
11,RASFIELVTEKRHPSHTPGK,-0.473 ± 0.39
12,FAWSRAACFSIPVRISVSLG,1.14 ± 0.72
13,PIDAPISQLGLCMFGYQEGL,-0.999 ± 1.3
14,VCFTYNFSPQLVL,0.098 ± 0.38
15,LYPMGYVRRCI,-0.29 ± 0.54
16,EKGRFVRLDERLYYLCVVWS,0.163 ± 0.66
17,RSDISASHRSVGLLNSHRTD,-0.58 ± 1.5
18,VDLVGYVVGIFNVYKVVEDT,-0.321 ± 0.23
19,LLIWRN,0.995 ± 0.62
20,NGKGFNDVVKLRSGRRWGVR,-0.111 ± 1.4
21,RRRPGPLPRCAF,1.96 ± 0.18
22,YWIFFNT,3.16 ± 0.13
23,GGGEATLREFFKECGK,-0.603 ± 0.35
24,IANGHKSSRCMQKDSSTS,0.586 ± 0.35
25,VYITVFMIAYMLLSDTDHE,0.377 ± 0.31
26,LWVTRRPVGGFMW,0.721 ± 0.79

row,Substance,amyloid nucleation score
1,GSVAKRPVVKISRHPLCMVW,0.364 ± 0.24
2,NDTSNPVTLCHFV,0.408 ± 0.48
3,LCLLIDNTYIVDVFFYVLSQ,1.49 ± 0.32
4,RHMRSHENVGKFWRLSCFVN,-0.36 ± 0.51
5,RRVGVYDGLRIFS,0.086 ± 0.93
6,DGFKAALICAIANY,0.397 ± 0.3
7,RKSFLTLVNFYYLFRC,3.1 ± 0.12
8,SVTLCKFRKT,-0.197 ± 0.37
9,HYTFKDCSSPLSWEPQPLFP,-0.32 ± 0.83
10,PIFMCHSFFQAIICWLSSHL,inactive
11,RPYGPYALLWSISIYAWELL,0.508 ± 0.61
12,YDEGHS,-0.778 ± 1.2
13,SYTGHPMNDRWHIG,3.4 ± 0.074
14,VLWTLVKIPHFTPNIMFRYY,0.053 ± 1.1
15,VICFWTLSRFYRGRD,-1.13 ± 0.62
16,YTRMLLRGAIETGFYPNMLE,-1.2 ± 2.1
17,AKVCLKSVTQFTTHLLMSRG,-0.009 ± 0.77
18,YMNLVLTDLAWSIWGG,3.62 ± 0.1
19,LFWWKE,-0.292 ± 0.44
20,FVLRRLALQ,-0.992 ± 0.39
21,VALDIGFSWALSRLWLKRHF,0.095 ± 0.29
22,QFSHNRIMLDQTWKNVVKGL,-0.001 ± 0.37
23,FCSNPAGWSSWSPE,0.182 ± 0.9
24,RLSRKISSWLTRYIIAWSWS,-0.713 ± 0.61
25,IWPLGNAIK,1.93 ± 0.51
26,FEGAW,-0.187 ± 1

row,Substance,amyloid nucleation score
1,ESLFLVCRPRRQVFIVSCRS,-0.716 ± 0.38
2,GVIYS,0.077 ± 0.28
3,TLRHALLRQTLSNLRQDGV,-0.009 ± 0.3
4,GVFEPCRVRSFMHIVSIADR,-0.306 ± 1.7
5,KAIRMLFSVMIVKR,inactive
6,TASRYLVVRN,0.875 ± 0.43
7,QVIEKFVAGCEGQKR,2.31 ± 0.14
8,LLICADVITFCFECTMRTGF,4.13 ± 0.064
9,VSRVNYNVFSVGISKSVCD,0.201 ± 0.85
10,RGGSYMFRLYCVFLYGCYFG,-0.577 ± 0.72
11,SFIIVYY,1.84 ± 0.19
12,IWMLELSGFMKMVQGGHQVG,3.06 ± 0.14
13,FSSIVSGTLAI,inactive
14,LFRWVLLFFVRT,inactive
15,SLSPWWIHANPWWPYMSNQV,inactive
16,FPEFIVFRMRIVYIVSFRTW,1.06 ± 0.47
17,TETQECVSRYVILGGGAGVS,0.271 ± 0.71
18,SIWKRLYFQVNGL,0.925 ± 0.92
19,KVRHNVVLG,-1.19 ± 0.66
20,LIFVKDVTLVMHGEERYRRS,5.508 ± 0.049
21,FFLLIFSVRGNPFFIKW,-0.153 ± 0.66
22,YFGMSY,-1.38 ± 0.66
23,TYQRRL,-0.414 ± 1.1
24,IYRGSNRLRRIGWEFNVALD,-0.819 ± 0.33
25,LVTDPWISTLSSFHLWGGFM,0.887 ± 0.7
26,PAGNNYDNNVSNNGTCKEFW,0.294 ± 0.28
